US20250011379A1

molecular target: human C4b (human) (UniProt P0C0L5); assay: cell-based or functional assay
Sequence (P0C0L5 20-1744): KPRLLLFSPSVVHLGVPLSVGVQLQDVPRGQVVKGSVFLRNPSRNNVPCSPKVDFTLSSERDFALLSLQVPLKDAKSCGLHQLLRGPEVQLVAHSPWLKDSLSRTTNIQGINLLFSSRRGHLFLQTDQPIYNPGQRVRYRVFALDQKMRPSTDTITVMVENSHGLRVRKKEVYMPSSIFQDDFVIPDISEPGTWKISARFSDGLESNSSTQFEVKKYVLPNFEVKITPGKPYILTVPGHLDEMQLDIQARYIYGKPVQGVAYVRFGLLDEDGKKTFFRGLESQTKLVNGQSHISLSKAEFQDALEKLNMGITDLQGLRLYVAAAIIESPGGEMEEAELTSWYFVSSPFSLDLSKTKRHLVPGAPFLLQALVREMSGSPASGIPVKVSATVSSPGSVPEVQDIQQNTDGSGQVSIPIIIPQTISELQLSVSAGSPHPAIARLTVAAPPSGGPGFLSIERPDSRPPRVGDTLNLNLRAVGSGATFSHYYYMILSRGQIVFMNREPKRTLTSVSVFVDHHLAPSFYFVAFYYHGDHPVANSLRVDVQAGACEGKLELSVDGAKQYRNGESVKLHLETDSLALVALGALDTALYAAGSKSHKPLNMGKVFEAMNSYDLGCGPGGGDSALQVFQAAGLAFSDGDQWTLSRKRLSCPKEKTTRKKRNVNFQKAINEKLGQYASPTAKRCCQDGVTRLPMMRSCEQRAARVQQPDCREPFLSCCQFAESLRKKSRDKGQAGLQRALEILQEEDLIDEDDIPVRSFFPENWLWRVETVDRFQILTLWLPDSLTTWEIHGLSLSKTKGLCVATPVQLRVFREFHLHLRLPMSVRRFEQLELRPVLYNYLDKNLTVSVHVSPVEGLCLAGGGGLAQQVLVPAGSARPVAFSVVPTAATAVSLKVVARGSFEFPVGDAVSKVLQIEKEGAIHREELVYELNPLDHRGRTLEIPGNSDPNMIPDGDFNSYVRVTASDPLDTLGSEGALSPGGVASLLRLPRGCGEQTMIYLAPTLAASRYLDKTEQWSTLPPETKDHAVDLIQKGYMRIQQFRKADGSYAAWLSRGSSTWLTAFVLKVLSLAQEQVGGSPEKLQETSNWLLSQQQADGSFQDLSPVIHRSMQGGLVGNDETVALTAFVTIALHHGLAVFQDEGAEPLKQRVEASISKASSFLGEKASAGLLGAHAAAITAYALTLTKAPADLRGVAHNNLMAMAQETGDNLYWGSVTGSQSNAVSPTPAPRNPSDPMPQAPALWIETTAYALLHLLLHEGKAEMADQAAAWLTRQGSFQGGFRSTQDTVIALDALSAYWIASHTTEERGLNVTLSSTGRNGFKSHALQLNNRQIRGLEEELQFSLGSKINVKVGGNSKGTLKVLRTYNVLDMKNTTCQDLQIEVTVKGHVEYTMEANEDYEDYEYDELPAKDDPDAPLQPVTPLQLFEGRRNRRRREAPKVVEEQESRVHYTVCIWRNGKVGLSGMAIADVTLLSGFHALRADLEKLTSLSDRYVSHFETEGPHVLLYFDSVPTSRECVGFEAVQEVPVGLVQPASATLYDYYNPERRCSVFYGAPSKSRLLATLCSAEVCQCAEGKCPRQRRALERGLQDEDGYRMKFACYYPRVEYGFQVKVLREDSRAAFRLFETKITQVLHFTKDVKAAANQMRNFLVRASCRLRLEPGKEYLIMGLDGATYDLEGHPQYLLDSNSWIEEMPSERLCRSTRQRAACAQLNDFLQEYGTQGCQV

Sequence of Const. No. 66: HSA-GGSSGG-hCFI-GGSSGG-hCR1; CCP8; CCP9; CCP10-(SEQ ID NO: 33)-hFH; CCP19; CCP20 (P17927 other isoform, or with tags, fused parts or gaps limits assumed): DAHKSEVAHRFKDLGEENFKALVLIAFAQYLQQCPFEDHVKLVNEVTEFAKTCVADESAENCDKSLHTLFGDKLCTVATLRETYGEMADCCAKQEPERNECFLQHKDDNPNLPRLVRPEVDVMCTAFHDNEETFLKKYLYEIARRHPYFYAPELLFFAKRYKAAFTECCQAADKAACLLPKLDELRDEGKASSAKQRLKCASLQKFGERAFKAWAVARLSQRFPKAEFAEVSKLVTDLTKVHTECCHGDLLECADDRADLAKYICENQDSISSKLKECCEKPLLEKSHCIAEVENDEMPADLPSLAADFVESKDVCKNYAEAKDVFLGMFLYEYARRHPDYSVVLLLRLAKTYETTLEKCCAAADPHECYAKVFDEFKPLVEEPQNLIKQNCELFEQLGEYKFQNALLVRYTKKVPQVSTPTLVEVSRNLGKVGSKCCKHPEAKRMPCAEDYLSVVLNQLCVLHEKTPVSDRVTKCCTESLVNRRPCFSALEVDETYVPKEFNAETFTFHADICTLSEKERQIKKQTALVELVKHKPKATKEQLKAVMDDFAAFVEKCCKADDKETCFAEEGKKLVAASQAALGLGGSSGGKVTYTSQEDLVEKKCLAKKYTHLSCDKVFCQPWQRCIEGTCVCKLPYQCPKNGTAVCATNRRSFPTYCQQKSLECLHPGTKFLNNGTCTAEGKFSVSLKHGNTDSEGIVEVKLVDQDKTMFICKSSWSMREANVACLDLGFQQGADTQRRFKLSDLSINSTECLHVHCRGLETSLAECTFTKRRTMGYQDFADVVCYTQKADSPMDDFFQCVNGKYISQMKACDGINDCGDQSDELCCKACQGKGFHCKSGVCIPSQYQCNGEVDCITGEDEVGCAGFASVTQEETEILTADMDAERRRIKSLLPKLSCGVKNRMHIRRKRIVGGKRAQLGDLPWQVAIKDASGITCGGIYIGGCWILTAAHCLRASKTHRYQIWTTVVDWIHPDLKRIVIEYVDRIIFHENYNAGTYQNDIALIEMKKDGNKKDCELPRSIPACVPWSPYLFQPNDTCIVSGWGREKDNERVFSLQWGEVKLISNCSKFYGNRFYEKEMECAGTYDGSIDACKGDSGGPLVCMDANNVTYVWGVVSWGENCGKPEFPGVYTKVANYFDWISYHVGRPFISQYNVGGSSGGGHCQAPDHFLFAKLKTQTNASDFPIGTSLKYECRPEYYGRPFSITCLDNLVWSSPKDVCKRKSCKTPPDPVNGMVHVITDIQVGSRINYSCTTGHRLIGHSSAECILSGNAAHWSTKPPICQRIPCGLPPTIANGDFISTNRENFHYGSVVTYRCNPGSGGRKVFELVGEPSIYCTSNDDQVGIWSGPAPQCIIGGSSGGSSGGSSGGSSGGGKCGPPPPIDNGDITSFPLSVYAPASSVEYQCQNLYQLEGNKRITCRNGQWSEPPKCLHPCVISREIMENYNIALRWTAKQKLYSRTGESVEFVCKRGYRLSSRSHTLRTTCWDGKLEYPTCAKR

Question: “Const. No. 71: HSA-…-Gorilla CFI (enzyme)” was tested. Which C4c EC50 did it give?
Answer: The C4c EC50 was 679 nM.

Question: For Const. No. 73: HSA-…-Chimp CFI (enzyme), which C4c EC50 is on record?
Answer: The C4c EC50 was 1610 nM.

Question: Which C4c EC50 does the source give for “Const. No. 74: HSA-…-Bovine CFI (enzyme)” here?
Answer: Its C4c EC50 is 47.1 nM.

molecular target: soluble human C3b (human) (UniProt P01024); assay: cell-based or functional assay
Sequence (P01024 23-1663 limits assumed): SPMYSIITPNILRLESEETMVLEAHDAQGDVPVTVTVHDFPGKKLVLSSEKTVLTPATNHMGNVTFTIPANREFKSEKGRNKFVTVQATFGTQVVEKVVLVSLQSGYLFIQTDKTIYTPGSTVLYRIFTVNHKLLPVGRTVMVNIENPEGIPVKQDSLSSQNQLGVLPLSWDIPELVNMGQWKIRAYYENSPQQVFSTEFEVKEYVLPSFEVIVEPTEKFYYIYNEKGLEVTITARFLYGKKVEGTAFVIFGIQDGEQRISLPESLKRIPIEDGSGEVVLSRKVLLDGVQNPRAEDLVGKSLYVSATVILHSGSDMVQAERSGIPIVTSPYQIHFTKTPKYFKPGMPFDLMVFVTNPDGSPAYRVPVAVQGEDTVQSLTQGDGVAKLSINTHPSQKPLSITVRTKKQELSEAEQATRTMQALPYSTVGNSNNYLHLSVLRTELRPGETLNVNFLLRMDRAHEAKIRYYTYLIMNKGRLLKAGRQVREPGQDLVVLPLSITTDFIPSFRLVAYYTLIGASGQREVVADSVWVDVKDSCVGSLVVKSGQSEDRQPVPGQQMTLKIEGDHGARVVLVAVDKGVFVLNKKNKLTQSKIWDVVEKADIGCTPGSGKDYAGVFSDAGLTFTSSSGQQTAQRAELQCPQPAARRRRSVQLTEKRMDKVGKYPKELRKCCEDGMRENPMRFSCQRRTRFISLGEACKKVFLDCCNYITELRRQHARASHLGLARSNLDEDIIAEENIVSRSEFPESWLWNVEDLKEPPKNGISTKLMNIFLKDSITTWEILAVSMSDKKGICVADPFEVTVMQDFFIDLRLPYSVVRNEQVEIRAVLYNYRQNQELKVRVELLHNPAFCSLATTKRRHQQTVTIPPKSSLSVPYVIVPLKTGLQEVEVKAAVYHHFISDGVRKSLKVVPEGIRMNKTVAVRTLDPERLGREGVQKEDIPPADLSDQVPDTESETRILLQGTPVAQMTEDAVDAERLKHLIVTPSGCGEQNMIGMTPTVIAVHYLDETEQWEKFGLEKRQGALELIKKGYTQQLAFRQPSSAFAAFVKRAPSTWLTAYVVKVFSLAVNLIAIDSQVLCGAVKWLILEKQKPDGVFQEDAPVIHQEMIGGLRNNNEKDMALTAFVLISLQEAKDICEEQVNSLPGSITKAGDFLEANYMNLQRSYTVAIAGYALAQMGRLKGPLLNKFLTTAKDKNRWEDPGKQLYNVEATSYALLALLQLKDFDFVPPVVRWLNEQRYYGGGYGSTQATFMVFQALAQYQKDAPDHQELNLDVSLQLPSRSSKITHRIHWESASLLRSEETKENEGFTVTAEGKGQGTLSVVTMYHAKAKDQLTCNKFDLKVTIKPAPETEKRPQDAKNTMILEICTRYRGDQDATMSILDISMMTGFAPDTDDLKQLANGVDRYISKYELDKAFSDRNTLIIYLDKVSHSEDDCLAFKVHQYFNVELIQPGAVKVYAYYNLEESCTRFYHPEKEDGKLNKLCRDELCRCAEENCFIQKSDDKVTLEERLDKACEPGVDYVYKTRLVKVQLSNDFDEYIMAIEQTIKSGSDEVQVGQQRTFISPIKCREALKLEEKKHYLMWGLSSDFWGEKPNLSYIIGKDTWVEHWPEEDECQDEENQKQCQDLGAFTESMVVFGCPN

Question: For “Const. No. 37: HSA-GGSSGG-hCFI; K51R; N52A; A55P; T59M; R61G; F64Y (enzyme)”, which iC3b EC50 is on record?
Answer: The iC3b EC50 was 20.3 nM.

Question: “Const. No. 72: HSA-…-Cyno CFI (from UniProt A0A650AXN4 19-583) (enzyme)” was tested. Which iC3b EC50 did it give?
Answer: Its iC3b EC50 is 3.12 nM.

Question: How did the iC3b EC50 turn out when “Const. No. 47: HSA-GGSSGG-hCFI; R484E (enzyme)” was run?
Answer: Its iC3b EC50 is 154 nM.

Question: “Const. No. 95: HSA linked with CFI (CFI-HSA), wild type (enzyme)” was tested. Which iC3b EC50 did it give?
Answer: The iC3b EC50 was 28.6 nM.

Question: With “Const. No. 50: HSA-GGSSGG-hCFI; E416K (enzyme)” as the substance, how does the iC3b EC50 read?
Answer: Its iC3b EC50 is 12.8 nM.

Question: Which iC3b EC50 does the source give for “Const. No. 35: HSA-GGSSGG-hCFI; R371E (enzyme)” here?
Answer: Its iC3b EC50 is 347 nM.

Question: With “Const. No. 7: HSA-GGSSGG-hCFI; P433A (enzyme)” as the substance, how does the iC3b EC50 read?
Answer: The iC3b EC50 was 15.8 nM.

Question: Which iC3b EC50 does the source give for “Const. No. 57: HSA-GGSSGG-hCFI; D395A; E416A (enzyme)” here?
Answer: The iC3b EC50 was 17.5 nM.

Question: For “Const. No. 55: HSA-GGSSGG-hCFI; D395R (enzyme)”, which iC3b EC50 is on record?
Answer: The iC3b EC50 was 12.4 nM.

Question: For “Const. No. 48: HSA-GGSSGG-hCFI; Δ(V565) > VG (enzyme)”, which iC3b EC50 is on record?
Answer: The iC3b EC50 was 1000 nM.

Question: How did the iC3b EC50 turn out when “Const. No. 71: HSA-…-Gorilla CFI (enzyme)” was run?
Answer: Its iC3b EC50 is 32.7 nM.

Question: Which iC3b EC50 does the source give for “Const. No. 6: HSA-GGSSGG-hCFI; L307Y (enzyme)” here?
Answer: Its iC3b EC50 is 34.7 nM.

Question: Which iC3b EC50 does the source give for “Const. No. 23: HSA-GGSSGG-hCFI; R62E (enzyme)” here?
Answer: Its iC3b EC50 is 156 nM.

Question: How did the iC3b EC50 turn out when “Const. No. 54: HSA-GGSSGG-hCFI; D395K (enzyme)” was run?
Answer: The iC3b EC50 was 7.38 nM.

Question: Which iC3b EC50 does the source give for “Const. No. 36: HSA-GGSSGG-hCFI; A342R (enzyme)” here?
Answer: Its iC3b EC50 is 13.1 nM.

Question: For Const. No. 73: HSA-…-Chimp CFI (enzyme), which iC3b EC50 is on record?
Answer: The iC3b EC50 was 54.6 nM.

Question: “Const. No. 60: HSA-GGSSGG-hCFI; K368D (enzyme)” was tested. Which iC3b EC50 did it give?
Answer: Its iC3b EC50 is 156 nM.

Question: “Const. No. 38: HSA-GGSSGG-hCFI; N52A (enzyme)” was tested. Which iC3b EC50 did it give?
Answer: Its iC3b EC50 is 39.8 nM.

Question: For “Const. No. 28: HSA-GGSSGG-hCFI; E401A (enzyme)”, which iC3b EC50 is on record?
Answer: Its iC3b EC50 is 11.8 nM.

Question: “Const. No. 16: HSA-GGSSGG-hCFI; S499V (enzyme)” was tested. Which iC3b EC50 did it give?
Answer: The iC3b EC50 was 85.6 nM.

Question: For “Const. No. 53: HSA-GGSSGG-hCFI; D395G (enzyme)”, which iC3b EC50 is on record?
Answer: The iC3b EC50 was 20.7 nM.

Question: With “Const. No. 22: HSA-GGSSGG-hCFI; R62A (enzyme)” as the substance, how does the iC3b EC50 read?
Answer: The iC3b EC50 was 102 nM.

Question: With “Const. No. 15: HSA-GGSSGG-hCFI; S499K (enzyme)” as the substance, how does the iC3b EC50 read?
Answer: The iC3b EC50 was 35.1 nM.

Question: Which iC3b EC50 does the source give for “Const. No. 70: HSA-…-Rat CFI (from UniProt Q9WUW3 19-604) (enzyme)” here?
Answer: The iC3b EC50 was 17.5 nM.

Question: For “Const. No. 49: HSA-GGSSGG-hCFI; Δ(V565) > VY (enzyme)”, which iC3b EC50 is on record?
Answer: Its iC3b EC50 is 89.2 nM.

Question: With “Const. No. 5: HSA-GGSSGG-hCFI; L307W (enzyme)” as the substance, how does the iC3b EC50 read?
Answer: The iC3b EC50 was 24.8 nM.

Question: For “Const. No. 34: HSA-GGSSGG-hCFI; H554K (enzyme)”, which iC3b EC50 is on record?
Answer: The iC3b EC50 was 8.7 nM.

Question: Which iC3b EC50 does the source give for “Const. No. 14: HSA-GGSSGG-hCFI; S499A (enzyme)” here?
Answer: Its iC3b EC50 is 40.9 nM.

Question: Which iC3b EC50 does the source give for “Const. No. 29: HSA-GGSSGG-hCFI; E401F (enzyme)” here?
Answer: The iC3b EC50 was 10.6 nM.

Question: Which iC3b EC50 does the source give for “Const. No. 51: HSA-GGSSGG-hCFI; E416R (enzyme)” here?
Answer: Its iC3b EC50 is 12.5 nM.

Question: For “Const. No. 45: HSA-GGSSGG-hCFI; R484A (enzyme)”, which iC3b EC50 is on record?
Answer: The iC3b EC50 was 61.1 nM.

Question: “Const. No. 2: HSA-GGSSGG-hCFI; F559H (enzyme)” was tested. Which iC3b EC50 did it give?
Answer: The iC3b EC50 was 28.6 nM.

Question: How did the iC3b EC50 turn out when “Const. No. 3: HSA-GGSSGG-hCFI; L307F (enzyme)” was run?
Answer: Its iC3b EC50 is 18.9 nM.

Question: With “Const. No. 33: HSA-GGSSGG-hCFI; H554F (enzyme)” as the substance, how does the iC3b EC50 read?
Answer: Its iC3b EC50 is 16.4 nM.

Question: How did the iC3b EC50 turn out when “Const. No. 27: HSA-GGSSGG-hCFI; E401R (enzyme)” was run?
Answer: The iC3b EC50 was 6.26 nM.

Question: How did the iC3b EC50 turn out when “Const. No. 92: HSA-GGSSGG-hCFI; N422A (enzyme)” was run?
Answer: Its iC3b EC50 is 46.3 nM.

Question: “Const. No. 56: HSA-GGSSGG-hCFI; D395A; D425A (enzyme)” was tested. Which iC3b EC50 did it give?
Answer: The iC3b EC50 was 9.67 nM.

Question: Which iC3b EC50 does the source give for “Const. No. 52: HSA-GGSSGG-hCFI; D395A (enzyme)” here?
Answer: Its iC3b EC50 is 22.5 nM.

Question: For “Const. No. 59: HSA-GGSSGG-hCFI; N402D (enzyme)”, which iC3b EC50 is on record?
Answer: The iC3b EC50 was 24.9 nM.

Question: “Const. No. 66: HSA-GGSSGG-hCFI-GGSSGG-hCR1; CCP8; CCP9; CCP10-(SEQ ID NO: 33)-hFH; CCP19; CCP20 (from UniProt P17927 491-684; P08603 1107-1231) (enzyme)” was tested. Which iC3b EC50 did it give?
Answer: The iC3b EC50 was 3.17 nM.

Question: What about the iC3b no cofactor EC50 of the same substance?
Answer: The iC3b no cofactor EC50 was 2.92 nM.

Question: And the iC3b with cofactor EC50?
Answer: Its iC3b with cofactor EC50 is 3.2 nM.

Question: For “Const. No. 40: HSA-GGSSGG-hCFI; T59E (enzyme)”, which iC3b EC50 is on record?
Answer: The iC3b EC50 was 43.1 nM.

Question: How did the iC3b EC50 turn out when “Const. No. 39: HSA-GGSSGG-hCFI; A55P (enzyme)” was run?
Answer: The iC3b EC50 was 31.4 nM.

Question: Which iC3b EC50 does the source give for “Const. No. 74: HSA-…-Bovine CFI (enzyme)” here?
Answer: The iC3b EC50 was 5.79 nM.

Question: Which iC3b EC50 does the source give for “Const. No. 21: HSA-GGSSGG-hCFI; K423R (enzyme)” here?
Answer: Its iC3b EC50 is 30.5 nM.

Question: “Const. No. 26: HSA-GGSSGG-hCFI; E401K (enzyme)” was tested. Which iC3b EC50 did it give?
Answer: The iC3b EC50 was 6.39 nM.

Question: For “Const. No. 42: HSA-GGSSGG-hCFI; L73D (enzyme)”, which iC3b EC50 is on record?
Answer: Its iC3b EC50 is 168 nM.

Question: For “Const. No. 91: HSA-GGSSGG-hCFI; T377A; E457G; N531G (enzyme)”, which iC3b EC50 is on record?
Answer: Its iC3b EC50 is 6.69 nM.

Question: “Const. No. 58: HSA-GGSSGG-hCFI; D395A; E416A; D425A (enzyme)” was tested. Which iC3b EC50 did it give?
Answer: Its iC3b EC50 is 8.15 nM.

Question: With “Const. No. 41: HSA-GGSSGG-hCFI; L73F (enzyme)” as the substance, how does the iC3b EC50 read?
Answer: The iC3b EC50 was 31.4 nM.

Question: “Const. No. 4: HSA-GGSSGG-hCFI; L307H (enzyme)” was tested. Which iC3b EC50 did it give?
Answer: Its iC3b EC50 is 21.4 nM.
